Measured values reported in the supplement of paper PMC10266784.

B1: library; numbered along this chain (parent)
chain: MAAAAAAAAEQQSSNGPVKKSMREKAVERRSVNKEHNSNFKAGYIPIDEDRLHKTGLRGRKGNLAICVIILLFILAVINLIITLVIWAVIRIGPNGCDSMEFHESGLLRFKQVSDMGVIHPLYKSTVGGRRNENLVITGNNQPIVFQQGTTKLSVENNKTSITSDIGMQFFDPRTQNILFSTDYETHEFHLPSGVKSLNVQKASTERITSNATSDLNIKVDGRAIVRGNEGVFIMGKTIEFHMGGNMELKAENSIILNGSVMVSTTRLPSSSSGDQLGSGDWVRYKLCMCADGTLFKVQVTSQNMGCQISDNPCGNTH

Variants of: B1
Experiment: SGCB cell-surface expression functional score (HA stain, bin4 vs bin1, normalised to synonymous) (log10 ratio); higher = more cell-surface SGCB (functional)
How it was run: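 Codon-saturation libraries of HA-tagged, YFP-fused human beta-sarcoglycan were lentivirally transduced at MOI <0.1 into HEK293 cells stably expressing alpha-, gamma- and delta-sarcoglycan. YFP-positive cells were sorted after 72 hours, grown 5–7 days, stained on ice with Alexa Fluor 647 anti-HA, fixed, sorted into four 5% intensity bins and amplicon-sequenced. The functional score is the log ratio of highest-bin to lowest-bin variant frequency, taken as the median over codons and duplicate transductions. Synonymous variants were scaled per section to mean 0, SD 0.5.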

Variant | SGCB cell-surface expression functional score (log10)
M289K | -0.23
M289D | -0.92
M289V | -0.24
M289T | -0.81
M289S | -0.79
M289P | -1.06
M289W | -1.6
M289N | 0.11
M289I | 0.1
M289C | -0.54
M289R | -0.22
M289H | -0.85
M289A | -1
M289F | -1.2
M289Q | -1.35
M289G | -1.37
M289L | -0.19
M289E | 0.05
M289Y | 0.01
A291Y | 0.25
A291E | -0.98
A291H | -0.89
A291C | -0.42
A291Q | -0.72

Variant | SGCB cell-surface expression functional score (log10)
A291K | -0.46
A291F | 0.25
A291P | 0.02
A291T | 0.17
A291V | -0.85
A291N | 0.17
A291R | 0.01
A291D | -0.71
A291I | -0.64
A291L | -0.71
A291W | -1.18
A291M | -2.2
A291S | -0.06
A291G | -0.19
G278K | 0.27
G278P | 0.23
G278M | 0.18
G278L | -0.05
G278S | 0.15
G278N | 0.05
G278Y | 0.08
G278R | 0.05
G278V | 0.32
G278W | 0.16

Variant | SGCB cell-surface expression functional score (log10)
G278Q | 0.09
G278T | 0.14
K286V | 0.03
K286N | -0.03
K286D | -1.17
K286G | -0.81
K286C | -1.06
K286E | -0.77
K286M | 0.29
K286L | -0.42
K286S | -1.02
K286I | -0.67
K286A | -0.54
K286Y | -0.08
K286W | -0.09
K286Q | -0.61
K286H | -1.12
K286T | -1.08
K286P | 0.02
K286R | -1
K286F | -0.07
C290R | -0.56
C290I | 0.02
C290W | 0.07

Variant | SGCB cell-surface expression functional score (log10)
C290Q | -0.2
C290T | -0.17
C290L | -0.51
C290Y | -0.57
C290N | -0.11
C290M | -0.16
C290K | -0.15
C290D | 0.2
C290E | 0.01
C290P | -1.32
C290H | -0.47
C290G | -0.08
C290S | -0.53
C290V | -0.97
C290A | -0.08
C290F | -0.75
S279E | 0.22
S279L | 0.22
S279G | -0.07
S279K | -0.05
S279P | 0.24
S279W | -0.2
S279I | -0.06
S279A | 0.39

Variant | SGCB cell-surface expression functional score (log10)
S279R | 0.16
S279Y | 0.05
S279F | -0.13
S279Q | -0.19
S279N | 0.15
S279V | 0.21
S279H | -0.04
S279C | 0.08
S279M | 0.56
S279D | 0.24
S279T | 0.09
L295D | -1.13
L295S | -0.42
L295W | -1.84
L295T | 0.03
L295H | -0.62
L295M | -0.78
L295R | -0.52
L295V | -0.12
L295K | -0.07
L295N | -1.17
L295I | 0.11
L295F | -0.18
L295P | -0.13

Variant | SGCB cell-surface expression functional score (log10)
L295E | -0.95
L295G | -0.87
L295C | -0.2
L295Q | -0.13
L295A | -0.91
T294L | 0.29
T294R | -0.13
T294E | -0.33
T294I | -0.04
T294G | 0.5
T294H | -0.74
T294N | 0.12
T294C | -0.97
T294Q | 0.06
T294W | 0.57
T294K | -0.03
T294P | 0.04
T294D | 0.14
T294V | 0.14
T294S | 0.17
T294M | 0.19
T294A | 0.08
T294F | 0.01
T294Y | -0.33

Variant | SGCB cell-surface expression functional score (log10)
Y285Q | -0.54
Y285H | -0.04
Y285I | -1.22
Y285G | -0.29
Y285A | -0.68
Y285K | -0.76
Y285S | -0.49
Y285C | -0.68
Y285T | -1.86
Y285N | -0.74
Y285F | -0.2
Y285R | -1.05
Y285M | -2.09
Y285P | -0.24
Y285D | -0.09
Y285V | -0.66
Y285L | -0.66
Y285E | -2.12
Y285W | 0.09
V283G | 0.12
V283F | -0.17
V283D | -0.63
V283M | 0.74
V283N | 0.35

Variant | SGCB cell-surface expression functional score (log10)
V283P | -0.19
V283E | 0.19
V283A | -0.15
V283C | 0.36
V283L | 0.37
V283S | -0.34
V283R | -0.21
V283Q | -0.56
V283K | 0.04
V283I | 0.38
V283T | -0.38
V283Y | -0.55
V283W | -1.26
V283H | -0.24
G280M | 0.03
G280S | 0.11
G280H | 0.05
G280C | -0.75
G280D | -0.56
G280W | -0.37
G280F | 0.08
G280N | 0.37
G280Q | -0.26
G280K | 0.07

Variant | SGCB cell-surface expression functional score (log10)
G280Y | -0.23
G280A | -0.01
G280T | -0.11
G280P | 0.06
G280E | 0.02
G280L | -0.28
G280R | -0.45
G280V | 0.01
G280I | 0.26
G293P | -0.23
G293A | -0.12
G293M | -0.11
G293L | -0.36
G293T | 0.13
G293V | -0.73
G293D | 0.2
G293N | 0.21
G293F | -0.08
G293Q | 0.3
G293H | 0.14
G293W | -0.35
G293I | -0.08
G293E | 0.05
G293S | -0.48

Variant | SGCB cell-surface expression functional score (log10)
G293Y | -0.17
G293C | 0.03
G293K | -0.71
G293R | -0.02
W282Q | 0.08
W282M | -0.29
W282F | 0.36
W282V | 0.04
W282D | -0.17
W282I | 0.19
W282P | 0.15
W282S | -0.06
W282G | 0.21
W282H | 0.22
W282C | -0.37
W282E | -0.07
W282L | 0.08
W282Y | -0.08
W282K | -0.08
W282T | -0.1
W282R | 0.12
W282A | 0.11
W282N | 0.08
R284M | 0.28

Variant | SGCB cell-surface expression functional score (log10)
R284L | -0.57
R284H | 0.16
R284E | -1.26
R284S | -0.16
R284N | -2.05
R284C | 0.03
R284P | -0.73
R284V | -1.16
R284I | -0.39
R284D | -1.55
R284K | -0.73
R284W | 0.31
R284Y | 0.27
R284T | -0.97
R284F | -0.51
R284A | 0.33
R284G | -0.11
R284Q | 0.05
D281E | 0.11
D281N | 0.25
D281P | -0.06
D281S | -0.22
D281F | 0.45
D281L | 0.08

Variant | SGCB cell-surface expression functional score (log10)
D281V | -0.16
D281M | 0.67
D281Y | 0.16
D281K | 0.25
D281R | -0.24
D281W | -1.51
D281Q | 0.18
D281H | -1.11
D281T | -0.28
D281C | -1.63
D281I | -0.27
D281G | -0.06
D281A | -0.2
L287A | -0.96
L287V | -0.04
L287F | -0.14
L287M | -2.09
L287Q | -1.3
L287H | -0.31
L287R | -1.38
L287T | -0.72
L287N | -2.02
L287W | -1.34
L287D | -0.88

Variant | SGCB cell-surface expression functional score (log10)
L287Y | -0.22
L287C | 0.06
L287P | 0.16
L287E | -0.2
L287K | -0.59
L287I | 0.07
L287G | -0.84
L287S | -1.02
D292W | -2.02
D292Q | -1.17
D292C | 0.07
D292R | -1.29
D292F | -0.23
D292N | -0.13
D292E | 0.1
D292K | -0.24
D292V | -0.08
D292P | -0.16
D292G | -0.42
D292T | -0.67
D292Y | -0.33
D292I | 0.06
D292H | -0.19
D292M | 0.17

Variant | SGCB cell-surface expression functional score (log10)
D292S | -0.12
D292L | 0.07
D292A | -0.14
C288T | -0.27
C288L | -0.83
C288S | -0.07
C288Q | -0.16
C288I | -0.55
C288D | 0.01
C288G | -0.27
C288V | -0.72
C288K | -1.15
C288R | -0.93
C288W | -0.68
C288H | -1
C288F | -0.71
C288A | -0.03
C288M | -1.54
C288Y | -0.01
C288P | -0.81
C288E | 0.01
C288N | -0.51
